Substrate: OC[C@H]1O[C@@](CO)(O[C@H]2O[C@H](CO)[C@@H](O)[C@H](O)[C@H]2O)[C@@H](O)[C@@H]1O
Test: purified protein
Type: biochemical, Weissella confusa
Conditions: 20 mM Na-acetate pH 5.4, 2 mM CaCl2, 35 °C, sucrose 3-146 mM, labelled compound

B1: WcE392-rDSR (Wc392-rDSR; recombinant WcE392-DSR dextransucrase) (Weissella confusa) (protein)
chain: DQLATQPAESAEVTQHETPTDSQAPDSVTSLSDTKETVQSSAASVDSSHVATSSASETTSSASETSTKTSSAASSVASSATMLSATSSASSSVDATITDGYHDEGGNWVYYRDGKKLTGRQLIDTFNVYFDEDGHQVKGDWRETDGKRAYYDGQEGRALTETQVVDGAVRGFDADGYEITNGFGQTSNQDTYYFDNDGNHVTGIQVIDGKTYNFDDQGRMLKGIATEVNGTMMYFDDQTGVATPTSDPKFNPELEPVPNQNAQHNAAHGTTPEDFDNMAGYLTADTWYRPNDILDNGETWRESTPTEYRPLIETWWPTKQTQADYVNYMNDALQVSTKTVSAADSEATLTAAADAIQAAIERQITVKQSTDWLRELMAAFVVTQPQWNKSSEDENDDHLQGGALSFENNPDTDANSDYRLMNRTPTNQTGERLYHIDDSLGGYELLLANDVDNSNPQVQAEQLNWLYYLMNFGSITANDPDANFDAIRVDAVDNVDADLLQLAAQYFRDAYGMATNDATSNQHLSILEDWSHNDPAYMNEHGNDQLTMDDYMHTQLIWSLTKSDAQRGKMDRFLDFYLTNRANDNTENEAQPSYSFVRAHDSEVQTVIAEIVTKLHPEAGNGLMPTQAQMDEAFKIYNADQKKAVKEYTHYNMPSAYAMLLTNKDVIPRVYYGDLYTDDGQYMATKSPYFDAIDAMLKARTKYVAGGQTMAVDKNDVLTSVRFGKGAMTASDAGTAETRTEGVGLIISNNHDLKMADSDQVVLHMGIAHANQAFRAVVMTTATGLAIYNDDNAPIRYTDANGDLIFTNADVYGVLNPQVSGFLAMWVPVGASATQDARTAASTEATTDGSAYHSNAALDSQVIFEGFSNFQAMPTTHDEYTNVVLAKHTDLLTDWSVTSVQLAPQYRSSTDGTFLDSIIQNGYAFTDRYDLGFGTPTKYGDDNDLRDVIKSLHANGIQVMADFVPDQLYALPGKELVQVTRTNNMGEPDKNSEIQHLMYVTSTRGGGEYQKQYGGEFLAKLRELYPDLFTTDQISTGKPIDDSVKIKEWSAKYLNGTAIQGRGAGYVLRDAGNNSYYRVTANTGNTNLPNQMLGKPVLTGFQKLADGYHFETLSGSAAKDAFIKDDNGELYYFDNNGVMATGEQKVRGGQYFFLPNGIALTDAFIETEDGHMRYYDKNGQLVVNQYVTDHQANAFRVDADGNVIRSQALTVDGNEQYFGSNGVQAKAQMVRDENGQAHYYAAGNGNMIKNQFILDTDGHWLYADQNGNLARGMTTLNQGTLYFDDQNHQVKDDFVYDADGVHYFNGTNGAEVKNDYAYHNGKWYYFDENGRMVTGLQTINGELRYFGADGAQLKGGQATNQKTNQTYVFDETNGSGKLVTI
notes: secreted by Lactococcus lactis NZ9800 (pNZ8037), Ni-NTA purified; predicted mature 1381 residues, 152 kDa (~160 kDa on SDS-PAGE); precursor printed as 1432 residues, but 4272 bp ORF implies 1423
Km: 14.7 ± 2.3 mM
Vmax: 8.2 µmol/min/mg
kcat: 23.2 ± 1.1 s⁻¹
kcat/Km: 1600 ± 300 M⁻¹ s⁻¹

Reference: publication PMC4300183, “Cloning and Characterization of a Weissella confusa Dextransucrase and Its Application in High Fibre Baking” (PLoS ONE, 2015)
